Experiments:
[1] = target: T1, IL-36R naturally expressed on OVCAR8 cells and on normal human epidermal keratinocytes (NHK cells) (human, UniProt Q9HB29 20-575); test: cell-based or functional assay
T1 sequence (looked up): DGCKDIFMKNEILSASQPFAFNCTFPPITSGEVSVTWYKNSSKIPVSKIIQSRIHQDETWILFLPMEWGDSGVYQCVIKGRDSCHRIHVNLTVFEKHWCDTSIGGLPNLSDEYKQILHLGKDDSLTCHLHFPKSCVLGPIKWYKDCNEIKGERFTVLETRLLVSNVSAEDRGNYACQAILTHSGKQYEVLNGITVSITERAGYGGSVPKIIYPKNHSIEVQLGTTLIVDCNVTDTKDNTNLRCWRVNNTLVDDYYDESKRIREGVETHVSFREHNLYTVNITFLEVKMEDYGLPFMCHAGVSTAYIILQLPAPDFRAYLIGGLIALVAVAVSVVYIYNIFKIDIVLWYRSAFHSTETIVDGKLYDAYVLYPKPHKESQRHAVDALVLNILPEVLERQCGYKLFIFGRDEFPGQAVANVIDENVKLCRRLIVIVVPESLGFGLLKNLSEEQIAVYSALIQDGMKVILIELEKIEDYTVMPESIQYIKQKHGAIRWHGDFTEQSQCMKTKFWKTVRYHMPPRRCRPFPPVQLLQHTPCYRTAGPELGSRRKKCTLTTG

[2] = target: T2, human IL-36R overexpressed on 293T-hIL36R-NFκB cells (human, UniProt Q9HB29 20-575); test: cell-based or functional assay
T2 sequence: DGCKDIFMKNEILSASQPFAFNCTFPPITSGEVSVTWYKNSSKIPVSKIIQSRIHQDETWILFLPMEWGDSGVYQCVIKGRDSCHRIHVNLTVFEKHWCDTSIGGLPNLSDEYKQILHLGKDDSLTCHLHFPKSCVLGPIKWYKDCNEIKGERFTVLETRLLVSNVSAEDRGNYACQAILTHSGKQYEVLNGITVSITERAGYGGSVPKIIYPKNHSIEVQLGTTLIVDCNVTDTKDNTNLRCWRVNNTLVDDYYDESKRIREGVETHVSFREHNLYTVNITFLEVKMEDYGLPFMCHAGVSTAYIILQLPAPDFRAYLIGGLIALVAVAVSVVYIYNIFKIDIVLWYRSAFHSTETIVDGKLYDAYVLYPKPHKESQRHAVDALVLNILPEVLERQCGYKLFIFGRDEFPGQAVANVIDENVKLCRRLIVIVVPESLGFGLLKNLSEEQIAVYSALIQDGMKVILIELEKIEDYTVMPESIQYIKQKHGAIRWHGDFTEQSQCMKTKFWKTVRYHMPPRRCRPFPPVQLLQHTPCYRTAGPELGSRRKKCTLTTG

[3] = target: T3, Human IL-1Rrp2/IL-1R6 protein, His Tag (ACROBiosystems, IL2-H52H6) (human, UniProt Q9HB29 20-335); test: BLI (ForteBio Octet), antibody on ProA sensor, 1:1 model
T3 construct: Bought protein; the soluble protein is likely only the extracellular part; also called hIL-36R; human IL36R antigen; not shown: His tag
T3 sequence: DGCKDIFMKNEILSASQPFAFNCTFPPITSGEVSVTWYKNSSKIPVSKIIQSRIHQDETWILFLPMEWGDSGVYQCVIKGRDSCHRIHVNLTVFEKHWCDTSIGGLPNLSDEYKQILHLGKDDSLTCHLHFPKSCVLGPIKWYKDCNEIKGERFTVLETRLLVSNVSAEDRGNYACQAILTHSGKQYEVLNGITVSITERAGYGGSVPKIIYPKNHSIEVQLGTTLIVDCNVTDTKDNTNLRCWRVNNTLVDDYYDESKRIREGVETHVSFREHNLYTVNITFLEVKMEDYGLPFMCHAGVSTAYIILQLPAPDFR
Procedure: The affinity of anti-IL-36R antibodies to CynoIL36R-ECD mFc and human IL-1Rrp2/IL-IR6 protein, His Tag (ACROBiosystems, IL2-H52H6) was measured by a ForteBio molecular interaction instrument. […] And then the biosensor was used to bind CynoIL36R-ECD mFc or human IL-1Rrp2/IL-1R6 protein, His Tag which was diluted by a gradient (the initial concentration was 200 nM, 2-fold gradient dilution), the response signals were detected in real time using a Fortebio molecular interaction instrument (SARTORIUS, octet red 96e), and association and dissociation curves were obtained. After the completion of dissociation in each cycle, the biosensor was regenerated for the next capture; the procedure was repeated until the affinity of the different anti-IL-36R antibodies for IL-36R was determined. The resulting data were analyzed by Fortebio Data Analysis 11.0 software in a 1:1 (Langmuir) binding model to determine kₐ (kₒₙ) and kd (koff) values, and the dissociation constant KD was calculated by KD=kd/kₐ. The detection method essentially followed the manufacturer's recommendations, and more information could be found at www.fortebio.com.

[4] = target: T2, human IL-36R overexpressed on …; test: FACS on 293T-hIL36R-NFκB cells, ratio of MFI to background MFI
Procedure: After the cells was washed with PBS, the cells were resuspended with 100 μL of PBS and then the fluorescence signal was detected using a flow cytometer (BD, Accuri C6). […] The ratio was the ratio of mean fluorescence intensity (MFI) of the experimental group/the background MFI, and the resulting data were analyzed using GraphPad Prism.

[5] = target: T1, IL-36R naturally expressed on OVCAR8 …; test: cell-based or functional assay; remark: listed apart in the source
[6] = target: T1, IL-36R naturally expressed on OVCAR8 …; test: cell-based or functional assay; remark: listed apart in the source
[7] = target: T2, human IL-36R overexpressed on …; test: cell-based or functional assay; remark: listed apart in the source
[8] = target: T2, human IL-36R overexpressed on …; test: cell-based or functional assay; remark: listed apart in the source

IC50; IL-8 production of OVCAR8 cells stimulated with hIL36α, inhibition rate % [1]: 0.73 nM | IC50; NFκB-luciferase reporter in 293T-hIL36R-NFκB cells stimulated with hIL36β, inhibition rate % [2]: 21.5 nM | Kd [3]: 4.72 nM | koff [3]: 0.000332 s⁻¹ | kon [3]: 70400 M⁻¹ s⁻¹ | EC50 [4]: 15.5 nM | IC50; IL-8 production of OVCAR8 cells stimulated with hIL36γ, inhibition rate % [5]: 1.05 nM | IC50; IL-8 production of OVCAR8 cells stimulated with hIL36β, inhibition rate % [6]: 0.972 nM | IC50; NFκB-luciferase reporter in 293T-hIL36R-NFκB cells stimulated with hIL36γ, inhibition rate % [7]: 25.4 nM | IC50; NFκB-luciferase reporter in 293T-hIL36R-NFκB cells stimulated with hIL36α, inhibition rate % [8]: 12.9 nM
B1: chimeric 74B4D6 antibody (antibody, human IgG4 S228P, kappa, V domains shown)
VH: EVQLQQPGAELGKPGASVKMACKASGYTFTNYWIHWVKQRPGQGLEWIGTIDPSENYTNYNQKFKGKATLTVDTSSSTAYMQLSSLTSEDKAVYFCTGSSFSYWGQGTLVTVSA
VL: QNVLTQSPAIMSVSPGEKVTMTCSASSSVSFIHWFQQKPGTSPKLWIYTTSNLASGVPARFSGSGSGTSYSLTISRMEAEDAATYYCQQRSSYPLTFGAGTKLELKR
notes: Mouse variable regions on human IgG4 / kappa; also called xi74B4D6

From patent US20240270857A1 (CHIA TAI TIANQING PHARMACEUTICAL GROUP, published 2024)
